First the molecules themselves.
B1: C20orf112 (parent)
chain: YANGGLNYSYRGYGALSSNLQPPA

The values that follow come from the supplement of paper PMC10567573.
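Further: lentivirally expressed fusions sorted by FACS into six bins by GFP to DsRed ratio, PSI derived from sequencing read proportions per bin multiplied by bin number.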

Variants of B1 are the subject of the data set. Nature of the data set: protein stability index of a GFP-peptide fusion (GPS, HEK-293T) (PSI 1-6); higher = more stable. The following applies: c terminus: a fixed tail appended.
As for YANGGLKYSYRGYGALSSNLQPPA, the protein stability index was determined as 1.81. In the case of YANGKLNYSYRGYGALSSNLQPPA it was 1.82. In the case of YANGFLNYSYRGYGALSSNLQPPA it was 1.98. Consider YANGALNYSYRGYGALSSNLQPPA, for which the protein stability index worked out at 1.99. For YANGELNYSYRGYGALSSNLQPPA the value was 2.4; for YANGPLNYSYRGYGALSSNLQPPA, 2.02; for YANGSLNYSYRGYGALSSNLQPPA, 1.65.

In the case of YANGILNYSYRGYGALSSNLQPPA, the protein stability index amounted to 2.21.

Turning to YANGCLNYSYRGYGALSSNLQPPA, the protein stability index was 2.2. As to YANGVLNYSYRGYGALSSNLQPPA, the protein stability index is 2.03.

As to YANGQLNYSYRGYGALSSNLQPPA, the protein stability index was 1.93. Turning to YANGWLNYSYRGYGALSSNLQPPA, the protein stability index came out at 2.37. As to YANGTLNYSYRGYGALSSNLQPPA, the protein stability index is 1.91. In the case of YANGMLNYSYRGYGALSSNLQPPA it was 2.49; in that of YANGLLNYSYRGYGALSSNLQPPA, 1.9; in that of YANGRLNYSYRGYGALSSNLQPPA, 1.98. As for YANGNLNYSYRGYGALSSNLQPPA, the protein stability index worked out at 1.72. YANGDLNYSYRGYGALSSNLQPPA: the protein stability index turned out to be 2.08. Consider YANGHLNYSYRGYGALSSNLQPPA, for which the protein stability index turned out to be 2.08.

For YANGYLNYSYRGYGALSSNLQPPA, the protein stability index worked out at 1.86.

With YYNGGLNYSYRGYGALSSNLQPPA, the protein stability index came out at 2.63. Regarding YNNGGLNYSYRGYGALSSNLQPPA, the protein stability index was found to be 2.3. For YSNGGLNYSYRGYGALSSNLQPPA the value was 1.54.

On to YWNGGLNYSYRGYGALSSNLQPPA, for which the protein stability index stood at 2.22. For YKNGGLNYSYRGYGALSSNLQPPA the value was 2.19; for YDNGGLNYSYRGYGALSSNLQPPA, 2.81.

For the variant YQNGGLNYSYRGYGALSSNLQPPA, the protein stability index is 1.4.

YCNGGLNYSYRGYGALSSNLQPPA: the protein stability index stood at 1.87. For YGNGGLNYSYRGYGALSSNLQPPA the value was 1.95. In the case of YMNGGLNYSYRGYGALSSNLQPPA it was 1.68; in that of YFNGGLNYSYRGYGALSSNLQPPA, 2.07; in that of YVNGGLNYSYRGYGALSSNLQPPA, 2.49.

Turning to YHNGGLNYSYRGYGALSSNLQPPA, the protein stability index worked out at 1.62. In the case of YRNGGLNYSYRGYGALSSNLQPPA it was 2.22; in that of YENGGLNYSYRGYGALSSNLQPPA, 2.63.

For YINGGLNYSYRGYGALSSNLQPPA, the protein stability index is 2.1.

Consider YTNGGLNYSYRGYGALSSNLQPPA, for which the protein stability index came to 1.99. For YLNGGLNYSYRGYGALSSNLQPPA the value was 1.93. YANGGLNYHYRGYGALSSNLQPPA: the protein stability index turned out to be 1.82. In the case of YANGGLNYEYRGYGALSSNLQPPA it was 1.43. For YANGGLNYNYRGYGALSSNLQPPA the value was 1.89.

As for YANGGLNYQYRGYGALSSNLQPPA, the protein stability index is 1.46. For YANGGLNYRYRGYGALSSNLQPPA the value was 1.67; for YANGGLNYFYRGYGALSSNLQPPA, 2.99. On to YANGGLNYTYRGYGALSSNLQPPA, for which the protein stability index was determined as 1.82. In the case of YANGGLNYWYRGYGALSSNLQPPA it was 2.46.

Take YANGGLNYPYRGYGALSSNLQPPA: the protein stability index worked out at 1.7. With YANGGLNYKYRGYGALSSNLQPPA, the protein stability index was determined as 1.57. As for YANGGLNYMYRGYGALSSNLQPPA, the protein stability index stood at 2.77. With YANGGLNYGYRGYGALSSNLQPPA, the protein stability index is 1.88. For YANGGLNYVYRGYGALSSNLQPPA the value was 2.6. For YANGGLNYYYRGYGALSSNLQPPA the value was 1.59. With YANGGLNYDYRGYGALSSNLQPPA, the protein stability index worked out at 1.97. In the case of YANGGLNYAYRGYGALSSNLQPPA, the protein stability index stood at 2.35. As for YANGGLNYCYRGYGALSSNLQPPA, the protein stability index came out at 1.7. As to YANGGLNYIYRGYGALSSNLQPPA, the protein stability index was 2.58.

For the variant YAQGGLNYSYRGYGALSSNLQPPA, the protein stability index came to 1.65. Turning to YAIGGLNYSYRGYGALSSNLQPPA, the protein stability index came out at 2.11. For YAAGGLNYSYRGYGALSSNLQPPA the value was 1.64; for YALGGLNYSYRGYGALSSNLQPPA, 2.25. Consider YAHGGLNYSYRGYGALSSNLQPPA, for which the protein stability index is 1.55. For the variant YAWGGLNYSYRGYGALSSNLQPPA, the protein stability index was found to be 1.82. Regarding YAKGGLNYSYRGYGALSSNLQPPA, the protein stability index is 1.7. For YAMGGLNYSYRGYGALSSNLQPPA the value was 1.5; for YATGGLNYSYRGYGALSSNLQPPA, 1.65. For YASGGLNYSYRGYGALSSNLQPPA the value was 1.99. In the case of YAYGGLNYSYRGYGALSSNLQPPA it was 1.8; in that of YADGGLNYSYRGYGALSSNLQPPA, 2.56; in that of YAFGGLNYSYRGYGALSSNLQPPA, 2.04. Consider YAGGGLNYSYRGYGALSSNLQPPA, for which the protein stability index is 1.98.

As for YAEGGLNYSYRGYGALSSNLQPPA, the protein stability index was found to be 1.6. For YACGGLNYSYRGYGALSSNLQPPA the value was 1.69. In the case of YAVGGLNYSYRGYGALSSNLQPPA it was 2.08; in that of YARGGLNYSYRGYGALSSNLQPPA, 2.25; in that of YAPGGLNYSYRGYGALSSNLQPPA, 2.35. Regarding YANGGLNYSKRGYGALSSNLQPPA, the protein stability index is 1.73.

Consider YANGGLNYSFRGYGALSSNLQPPA, for which the protein stability index worked out at 1.5. For the variant YANGGLNYSIRGYGALSSNLQPPA, the protein stability index was 1.99.

Turning to YANGGLNYSQRGYGALSSNLQPPA, the protein stability index was 1.77. For YANGGLNYSGRGYGALSSNLQPPA the value was 1.5. For the variant YANGGLNYSSRGYGALSSNLQPPA, the protein stability index was found to be 2.48.

For the variant YANGGLNYSTRGYGALSSNLQPPA, the protein stability index worked out at 2.25. In the case of YANGGLNYSVRGYGALSSNLQPPA it was 1.89; in that of YANGGLNYSHRGYGALSSNLQPPA, 2.15; in that of YANGGLNYSLRGYGALSSNLQPPA, 2.3.

With YANGGLNYSNRGYGALSSNLQPPA, the protein stability index was found to be 1.89.

YANGGLNYSPRGYGALSSNLQPPA: the protein stability index was 1.92.

Take YANGGLNYSCRGYGALSSNLQPPA: the protein stability index was 2.23.

On to YANGGLNYSRRGYGALSSNLQPPA, for which the protein stability index is 2.01. In the case of YANGGLNYSARGYGALSSNLQPPA, the protein stability index worked out at 1.9. For YANGGLNYSERGYGALSSNLQPPA the value was 1.32; for YANGGLNYSMRGYGALSSNLQPPA, 2.97. For YANGGLNYSWRGYGALSSNLQPPA, the protein stability index stood at 2.66.

Turning to YANGGLNYSDRGYGALSSNLQPPA, the protein stability index is 1.54.
